Here are results for 9 molecules from patent publication US20170260284A1 (NATIONAL CANCER CENTER, published 2017).

Experiment [1] addresses T1, human transmembrane protein 180 (TMEM-180), endogenous on human cancer cells (human, UniProt Q14CX5 1-517).
T1 construct: Membrane protein expressed endogenously by human colon cancer lines (DLD-1 and others), brain tumor lines and colon cancer tissue; also called TMEM-180 on DLD-1 cells
T1 sequence: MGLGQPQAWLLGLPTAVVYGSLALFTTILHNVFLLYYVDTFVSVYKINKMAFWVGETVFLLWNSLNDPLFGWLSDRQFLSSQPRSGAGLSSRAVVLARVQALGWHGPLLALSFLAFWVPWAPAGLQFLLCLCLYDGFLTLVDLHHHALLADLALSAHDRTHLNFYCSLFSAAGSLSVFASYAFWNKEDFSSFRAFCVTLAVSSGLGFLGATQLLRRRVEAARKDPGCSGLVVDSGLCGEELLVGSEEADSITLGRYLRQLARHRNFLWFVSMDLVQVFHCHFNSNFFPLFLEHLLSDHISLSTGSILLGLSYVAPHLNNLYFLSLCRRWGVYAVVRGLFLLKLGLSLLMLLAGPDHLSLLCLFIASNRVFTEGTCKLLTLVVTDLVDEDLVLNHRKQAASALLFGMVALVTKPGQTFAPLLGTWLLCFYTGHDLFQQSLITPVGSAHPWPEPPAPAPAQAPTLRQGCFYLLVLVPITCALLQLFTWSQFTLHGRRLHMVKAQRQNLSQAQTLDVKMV
As to the kind of experiment: flow cytometry, hybridoma supernatant on DLD-1 cells (selection of clones). (In flow cytometry, cells or beads pass a laser one at a time.)

Experiment [2] addresses T1, human transmembrane protein 180 …. As to the kind of experiment: flow cytometry, DLD-1 parent line against TMEM-180 knockout line; culture supernatant diluted two-fold. As to the method: The plate was centrifuged for 3 minutes at 440×g and 4° C. followed by removing the supernatant, adding antibody-producing hybridoma culture supernatant or antibody solution to the cell pellet at 50 μL/well and suspending therein. After allowing to react for 45 minutes on ice, the plate was washed three times with a mixture of 0.1% BSA, 2 mM EDTA and PBS at 200 μL/well. The supernatant was removed and secondary antibody was added to the cell pellet at 50 μL/well followed by suspending the cells therein. AlexaFluor 647 goat anti-rat IgG (H-L) (Life Technologies Corporation) was used for the secondary antibody after diluting 400-fold with a mixture of 0.1% BSA, 2 mM EDTA and PBS. After allowing to react for 45 minutes on ice, the plate was washed three times with a mixture of 0.1% BSA, 2 mM EDTA and PBS at 200 μL/well. […] The cells stained in this manner were measured using a flow cytometer such as the Guava easyCyte 8HT (Merck Millipore Corporation) followed by analysis of the resulting data using FlowJO (Tomy Digital Biology Co., Ltd.). […]
Flow cytometry was carried out in accordance with the procedure described in the above-mentioned section 3. […] Furthermore, antibody concentration in the hybridoma culture supernatant was measured by rat IgM-specific ELISA (Bethyl Laboratories).

Experiment [3] has the same target. Kind of experiment: flow cytometry on colon cancer and brain tumor cell lines.

B1: rat IgM antibody clone 98 (anti-TMEM-180 antibody clone 98) (antibody, V domains shown)
VH: QVQLKESGPGLVQPSQTLSLTCTVSGFSLTRYNVHWVRQPTGKGLEWMGVIWTGGSTDYNSALKSRLSISRDTSKSQVFLKMNSLQTEDIATYYCARDLGYWGQGVMVTVSS
VL: DIVMTQTPLSLSVAIGQSASISCKSSQSLKYRDGKTYLNWVFQSPGQSPKRLIYQVSKLDSGVPDRFSGTGSETDFTLKISRVEAEDLGVYYCCQGSYSPHTFGAGTKLELK
notes: Rat IgM from hybridoma, used as culture supernatant; also called IgM 98; Anti-TMEM-180 IgM rat antibody (clone 98)
Consider B1, for which the binding result in experiment [1] is “binds”.

B2: rat-human chimeric antibody clone 98 (antibody, V domains shown)
VH: QVQLKESGPGLVQPSQTLSLTCTVSGFSLTRYNVHWVRQPTGKGLEWMGVIWTGGSTDYNSALKSRLSISRDTSKSQVFLKMNSLQTEDIATYYCARDLGYWGQGVMVTVSS
VL: DIVMTQTPLSLSVAIGQSASISCKSSQSLKYRDGKTYLNWVFQSPGQSPKRLIYQVSKLDSGVPDRFSGTGSETDFTLKISRVEAEDLGVYYCCQGSYSPHTFGAGTKLELK
notes: Used as culture supernatant diluted two-fold; also called human chimeric IgG antibody
Regarding B2, the binding result in experiment [2] is on record as “binds”.

B3: anti-TMEM-180 antibody clone 382 (rat IgG) (antibody, V domains shown)
VH: EVQLVESGGGLVQPGRSLKLSCAASGFTFSNYGMHWIRQAPTKGLEWVASISPSGGSTYYRDSVKGRFTISRDNAKSTLYLQMDSLRSEDTATYYCATSASITAYYYVMDAWGQGASVTVSS
VL: DIVMTQSPTSMSISVGDRVTMNCKASQNVGSNVDWYQQKTGQSPKLLIYKASNRYTGVPDRFTGSGSGTDFTFTISNMQAEDLAVYYCMQSNSYPPTFGGGTKLELR
notes: the entries appear to include a leader
In the case of B3, the binding result in experiment [1] is listed as “binds”.

B4: anti-TMEM-180 antibody clone 129 (rat IgG) (antibody, V domains shown)
VH: QIQLVQSGPELKKPGESVKISCKASGYTFTDCALNWVKQAPGNGLKWMGWINTQTGKPTYADDFKQRFVFSLETSASTAYLQINNLNIEDTATYFCTREDYGYFDYWGQGVMVTVSS
VL: DIQMTQSPPSLSASLGDKVTITCQASQNINKFIAWYQQKPGKAPRHLVHYTSTLVSGTPSRFSGSGSGRDYSFSISNVESEDIASYYCLQYDNLRTFGGGTKLELK
notes: as for B3
In the case of B4, the binding result in experiment [1] was “binds”.

B5: anti-TMEM-180 antibody clone 1052 (rat IgM) (antibody, V domains shown)
VH: QVQLKESGPGLMQPSETLSLTCTVSGFSLTSNGVGWVRQPLGKGLVWMGTIWTGGGTNYNSGVQSRLSISRDTSKSQVFLKMNSLQPEDTGTYYCAREYMGFDYWGQGVMVTVSS
VL: NTVMTQSPTSMFTSVGDRVTMSCKASQNVGINVGWYQQKTGQSPKRLIYWASNRDTGVPDRFTGSGSGTDFTLTISNMQAEDPAIYYCLQHNSYPRTFGGGTKLELK
notes: as for B3
Regarding B5, the binding result in experiment [1] is on record as “binds”.

B6: anti-TMEM-180 antibody clone 1105 (rat IgM) (antibody, V domains shown)
VH: QVQLKESGPGLMQPSETLSLTCTVSGFSLTSNGVGWVRQPLGKGLVWMGTIWSGGGTNYNSAVQSRLSITRDTSKSQVFLKMNSLQPEDTGTYYCAREEKGFAYWGQGTLVTVSS
VL: NIVMTQSPTSMSTSVGDRVTMSCKASQNVGINVGWYQQKTGQSPKRLIYWASNRDTGVPDRFTGSGSGTDFTLTISNMQAEDPAIYYCLQHNSYPRAFGGGTKLELR
notes: as for B3
With B6, in experiment [1], the binding result was “binds”.

B7: anti-TMEM-180 antibody clone 699 (rat IgM) (antibody, V domains shown)
VH: QVQLQQSGAELTKPGSSVKISCKASGYTFTSYDISWIKQRPGQALEWIGAINPGSGGTGYNEKFKGKATLTVDKSSSTAFMQLSSLTPEDTAVYYCARIHGGYRYWFAYWGQGTLVTVSS
VL: EIVLTQSPTTMAASPGEKVTITCRASSSVSYMHWFQQKSGTSPKPWIYDTSKLASGVPDRFSGSGSGTSYSLTISSMEAEDAATYYCLQRSSYPPTFGAGTKLELK
notes: as for B3
As for B7, the binding result in experiment [1] was “binds”.

B8: anti-TMEM-180 antibody clone 212 (rat IgM) (antibody, V domains shown)
VH: EVQLVESGGGLVQPGNSLKLSCAASGFTFSDYAMAWVRQSPKKGLEWVATIIYDGSSTYYRDSVKGRFTISRDNAKSTLYLQMDSLRSEDTATYYCATHWYWYFDFWGPGTMVTVSS
VL: DIQMTQSPASLSASLGETVSIECLASEGISNDLAWYQQKSGKSPQLLIYAASRLQDGVPSRFSGSGSGTRYSLKISGMQPEDEADYFCQQSYKYPLTFGSGTKLEIK
notes: Rat IgM from hybridoma; the entries appear to include a leader and no cleavage site is stated
B8: the binding result in experiment [3] is reported as “binds”.

B9: anti-TMEM-180 antibody clone 101 (rat IgM) (antibody, V domains shown)
VH: QVQLKETGPGLVQPTQTLSITCTVSGFSLTSYYMQWVRQTPGKGLEWMGFIRSGGSTEYNSEFKSRLSISRDTSKNQVFLKMNSLKTEDTGVYYCARAFYGGYYFDYWGQGVMVTVSS
VL: DIVMTQSPTSISISVGERVTMNCKASQNVGSNVDWYQQKTGQSPKLLIYKASNRYTGVPDRFTGSGSGTDFTFTISNMQAEDLAVYYCMQSNTKYTFGAGTKLELK
notes: as for B8
For B9, the binding result in experiment [3] was “binds”.
